Our source for the Km, kcat and kcat/Km values is patent US20240318160A1.

Common to all, as to experiment: TAL and PAL enzyme kinetics
Data set [1] has as its system N[C@@H](Cc1ccccc1)C(=O)O. Format: biochemical, Arabidopsis thaliana. As to conditions: other: PAL assay (L-Phe), pH 8.5, 30° C.
The subject of data set [2] is N[C@@H](Cc1ccccc1)C(=O)O. The format is biochemical, Brachypodium distachyon. The note with it: other: PAL assay (L-Phe), pH 8.5, 30° C.
For data set [3], the system named is N[C@@H](Cc1ccc(O)cc1)C(=O)O. The format is biochemical, Arabidopsis thaliana. As to conditions: other: TAL assay (L-Tyr), pH 8.5, 30° C.
For data set [4], the system named is N[C@@H](Cc1ccc(O)cc1)C(=O)O. Format: biochemical, Brachypodium distachyon. As to conditions: other: TAL assay (L-Tyr), pH 8.5, 30° C. The method, then: (§1) All substrate solutions were prepared with 0.01 N NaOH to increase the solubility of L-Tyr. A mixture containing 100 mM Tris-HCl (pH 8.5), 1% glycerol, and purified enzyme in a total volume of 50 μl was preincubated for 3 min at 30° C. PAL and TAL reactions were started by addition of 50 μl of 1 mM substrate (L-Phe or L-Tyr, respectively) and were incubated at 30° C. for 20 min unless otherwise noted. The reactions were terminated by addition of 6N acetic acid (10 μl).
(§2) The kinetic parameters of the recombinant enzymes were determined using HPLC. Reaction mixtures containing 100 mM Tris-HCl (pH 8.5), 1% glycerol, and purified enzyme (0.15 μg for PAL assay and 1 μg for TAL assay) in a 50 μl total volume were preincubated for 3 min at 30° C. PAL and TAL reactions were started by addition of 50 μl substrate solution prepared with 0-4 mM L-Phe and 0-2 mM L-Tyr. After 10 min and 20 min incubations for PAL and TAL assay, respectively, at 30° C., the reaction was terminated by addition of 6N acetic acid (10 μl). […] The products were quantified using calibration curves generated using authentic standards. Non-linear hyperbolic regression analyses were conducted using the Excel Solver tool to calculate Km and Vmax values.

In data set [5] the test system is N[C@@H](Cc1ccccc1)C(=O)O. Format: biochemical, Brachypodium distachyon. As to conditions: other: PAL assay (L-Phe), pH 8.5, 30° C. Here is the method: as §1, §2
This is another data set of the same source.

The subject of data set [6] is N[C@@H](Cc1ccc(O)cc1)C(=O)O. The format is biochemical, Sorghum bicolor. As to conditions: other: TAL assay (L-Tyr), pH 8.5, 30° C. The method, then:
as §1, §2

Data set [7] relates to N[C@@H](Cc1ccccc1)C(=O)O. The format is biochemical, Sorghum bicolor. As to conditions: other: PAL assay (L-Phe), pH 8.5, 30° C. The method, then:
as §1, §2

Data set [8] has as its system N[C@@H](Cc1ccccc1)C(=O)O. Format: biochemical, Sorghum bicolor. As to conditions: other: PAL assay (L-Phe), pH 8.5, 30° C. The source holds these as a separate data set.

Sequence of Brachypodium distachyon BdPTAL, wild type (Brachypodium distachyon) (chain, as listed by the source): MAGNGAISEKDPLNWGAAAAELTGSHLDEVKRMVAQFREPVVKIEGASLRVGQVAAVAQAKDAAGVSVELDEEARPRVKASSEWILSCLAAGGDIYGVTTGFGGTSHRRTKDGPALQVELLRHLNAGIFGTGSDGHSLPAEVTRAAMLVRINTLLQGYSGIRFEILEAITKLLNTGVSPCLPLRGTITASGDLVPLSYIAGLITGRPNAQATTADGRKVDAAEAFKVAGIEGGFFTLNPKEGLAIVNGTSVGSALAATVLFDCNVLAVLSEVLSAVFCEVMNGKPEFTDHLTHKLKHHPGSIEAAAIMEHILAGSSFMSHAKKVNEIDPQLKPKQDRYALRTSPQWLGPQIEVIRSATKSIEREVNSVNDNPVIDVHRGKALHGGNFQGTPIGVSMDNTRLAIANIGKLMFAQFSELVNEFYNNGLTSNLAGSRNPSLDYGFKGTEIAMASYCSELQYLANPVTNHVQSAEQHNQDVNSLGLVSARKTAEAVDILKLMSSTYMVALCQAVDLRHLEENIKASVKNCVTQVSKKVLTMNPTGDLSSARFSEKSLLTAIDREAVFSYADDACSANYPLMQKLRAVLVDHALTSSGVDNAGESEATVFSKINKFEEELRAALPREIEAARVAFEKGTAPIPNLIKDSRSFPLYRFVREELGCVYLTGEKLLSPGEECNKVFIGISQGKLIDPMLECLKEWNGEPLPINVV
Sequence of Sorghum bicolor SbPTAL variant H123F (SbPTAL^H123F) (Sorghum bicolor; H123F) (chain, as listed by the source H123F H123F H123F): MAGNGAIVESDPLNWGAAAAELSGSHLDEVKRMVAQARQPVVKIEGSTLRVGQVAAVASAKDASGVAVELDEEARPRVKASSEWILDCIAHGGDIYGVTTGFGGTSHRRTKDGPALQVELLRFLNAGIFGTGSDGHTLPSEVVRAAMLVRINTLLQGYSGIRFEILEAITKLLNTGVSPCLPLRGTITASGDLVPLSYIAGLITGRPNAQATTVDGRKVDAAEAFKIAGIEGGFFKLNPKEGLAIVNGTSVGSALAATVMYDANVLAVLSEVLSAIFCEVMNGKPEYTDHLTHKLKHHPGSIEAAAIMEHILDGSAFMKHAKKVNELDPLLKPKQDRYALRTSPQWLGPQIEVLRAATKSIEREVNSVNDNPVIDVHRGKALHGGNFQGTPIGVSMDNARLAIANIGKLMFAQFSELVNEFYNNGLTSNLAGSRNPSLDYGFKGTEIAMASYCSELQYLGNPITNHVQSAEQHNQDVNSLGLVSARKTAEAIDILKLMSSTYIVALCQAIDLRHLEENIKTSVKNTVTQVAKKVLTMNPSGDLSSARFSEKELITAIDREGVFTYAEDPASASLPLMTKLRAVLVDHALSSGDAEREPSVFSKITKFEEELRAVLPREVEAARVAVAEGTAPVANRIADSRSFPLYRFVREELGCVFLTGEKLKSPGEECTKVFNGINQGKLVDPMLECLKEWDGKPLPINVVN
Sequence of Brachypodium distachyon BdPTAL variant H123F (BdPTAL^H123F) (Brachypodium distachyon; H123F) (chain, as listed by the source H123F H123F H123F): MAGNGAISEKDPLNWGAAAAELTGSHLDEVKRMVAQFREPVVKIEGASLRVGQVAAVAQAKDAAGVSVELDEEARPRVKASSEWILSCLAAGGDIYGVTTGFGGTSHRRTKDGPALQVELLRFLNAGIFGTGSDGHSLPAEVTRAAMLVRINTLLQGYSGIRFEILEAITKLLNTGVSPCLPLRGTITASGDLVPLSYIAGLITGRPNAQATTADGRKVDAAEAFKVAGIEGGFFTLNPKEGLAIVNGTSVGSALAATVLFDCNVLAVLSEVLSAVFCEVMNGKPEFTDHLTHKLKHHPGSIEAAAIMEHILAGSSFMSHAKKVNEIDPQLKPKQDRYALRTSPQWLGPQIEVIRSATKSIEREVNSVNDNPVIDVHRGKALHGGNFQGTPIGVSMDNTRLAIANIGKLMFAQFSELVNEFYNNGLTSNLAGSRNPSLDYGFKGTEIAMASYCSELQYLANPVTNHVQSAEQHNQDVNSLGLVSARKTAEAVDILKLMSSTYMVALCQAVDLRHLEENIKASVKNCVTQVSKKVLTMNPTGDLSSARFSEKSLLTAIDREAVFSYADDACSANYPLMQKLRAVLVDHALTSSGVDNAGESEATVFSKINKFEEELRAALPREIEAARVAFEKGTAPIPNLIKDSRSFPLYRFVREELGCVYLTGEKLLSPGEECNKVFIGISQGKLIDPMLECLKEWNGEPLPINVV
Sequence of Arabidopsis thaliana AtPAL1 variant S114I (as printed in Table 3; AtPAL1^S116I, SEQ ID NO: 260, elsewhere) (Arabidopsis thaliana; S116I) (chain, as listed by the source S114I S116I S116I): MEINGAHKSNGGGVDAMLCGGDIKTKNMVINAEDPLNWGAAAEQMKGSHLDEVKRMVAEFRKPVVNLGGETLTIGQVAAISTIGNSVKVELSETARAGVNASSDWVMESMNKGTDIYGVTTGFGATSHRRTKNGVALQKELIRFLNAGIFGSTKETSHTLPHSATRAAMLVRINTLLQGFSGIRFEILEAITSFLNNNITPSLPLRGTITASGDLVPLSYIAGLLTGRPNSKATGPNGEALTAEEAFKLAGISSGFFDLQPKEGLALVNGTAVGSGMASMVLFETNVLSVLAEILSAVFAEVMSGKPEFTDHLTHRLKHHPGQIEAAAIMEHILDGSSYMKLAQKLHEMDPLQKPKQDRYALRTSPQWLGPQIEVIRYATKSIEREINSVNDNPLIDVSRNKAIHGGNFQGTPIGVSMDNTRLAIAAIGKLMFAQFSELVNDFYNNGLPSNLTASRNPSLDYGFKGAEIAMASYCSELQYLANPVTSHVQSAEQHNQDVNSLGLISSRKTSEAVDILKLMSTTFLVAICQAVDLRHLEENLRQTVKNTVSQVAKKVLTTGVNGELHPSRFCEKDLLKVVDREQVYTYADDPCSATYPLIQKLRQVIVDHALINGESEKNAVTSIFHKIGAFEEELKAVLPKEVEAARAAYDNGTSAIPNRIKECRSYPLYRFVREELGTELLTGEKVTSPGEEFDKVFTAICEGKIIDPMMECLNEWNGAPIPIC
Sequence of Arabidopsis thaliana AtPAL1 variant F144H (AtPAL1^F144H), SEQ ID NO: 261 (Arabidopsis thaliana; F144H) (chain, as listed by the source F144H F144H F144H): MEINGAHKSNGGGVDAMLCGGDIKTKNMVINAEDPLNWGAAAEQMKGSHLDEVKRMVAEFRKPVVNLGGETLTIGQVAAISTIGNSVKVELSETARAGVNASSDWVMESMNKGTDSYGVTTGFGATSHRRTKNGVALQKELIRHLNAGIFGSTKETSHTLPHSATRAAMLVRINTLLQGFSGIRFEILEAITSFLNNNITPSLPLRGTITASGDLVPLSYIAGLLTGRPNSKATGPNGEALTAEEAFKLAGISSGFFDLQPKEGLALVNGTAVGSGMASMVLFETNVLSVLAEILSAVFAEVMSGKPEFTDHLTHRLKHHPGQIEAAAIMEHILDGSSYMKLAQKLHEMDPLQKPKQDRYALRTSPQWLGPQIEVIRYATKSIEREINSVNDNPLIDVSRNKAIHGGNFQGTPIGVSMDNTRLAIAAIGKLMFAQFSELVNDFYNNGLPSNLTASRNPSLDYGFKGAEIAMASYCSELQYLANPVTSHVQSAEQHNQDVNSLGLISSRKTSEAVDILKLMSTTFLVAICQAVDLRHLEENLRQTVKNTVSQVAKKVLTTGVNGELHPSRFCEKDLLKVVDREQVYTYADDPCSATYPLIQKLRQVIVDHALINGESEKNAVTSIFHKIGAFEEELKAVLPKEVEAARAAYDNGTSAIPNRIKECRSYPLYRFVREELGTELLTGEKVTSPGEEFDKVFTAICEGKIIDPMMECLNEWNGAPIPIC
Sequence of Arabidopsis thaliana AtPAL1, wild type, SEQ ID NO: 144 (Arabidopsis thaliana) (chain, as listed by the source): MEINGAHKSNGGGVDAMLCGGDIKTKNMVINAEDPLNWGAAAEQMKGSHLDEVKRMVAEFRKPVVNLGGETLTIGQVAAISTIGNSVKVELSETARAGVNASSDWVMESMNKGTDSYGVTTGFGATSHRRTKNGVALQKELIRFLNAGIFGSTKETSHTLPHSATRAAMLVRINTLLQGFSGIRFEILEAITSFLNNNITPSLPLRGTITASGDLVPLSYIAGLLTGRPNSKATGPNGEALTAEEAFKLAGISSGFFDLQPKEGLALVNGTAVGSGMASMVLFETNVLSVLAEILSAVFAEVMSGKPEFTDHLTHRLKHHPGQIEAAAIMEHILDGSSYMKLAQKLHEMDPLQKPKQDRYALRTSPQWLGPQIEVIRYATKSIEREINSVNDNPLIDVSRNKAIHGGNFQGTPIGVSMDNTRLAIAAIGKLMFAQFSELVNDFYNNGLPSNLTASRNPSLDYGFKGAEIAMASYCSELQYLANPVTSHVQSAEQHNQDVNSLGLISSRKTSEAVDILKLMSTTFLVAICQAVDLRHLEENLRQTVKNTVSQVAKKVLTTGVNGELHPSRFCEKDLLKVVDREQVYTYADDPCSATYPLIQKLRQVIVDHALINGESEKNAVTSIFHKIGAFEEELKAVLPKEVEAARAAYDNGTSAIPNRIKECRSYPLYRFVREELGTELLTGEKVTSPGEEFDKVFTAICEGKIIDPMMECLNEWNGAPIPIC
Sequence of Sorghum bicolor SbPTAL, wild type (Sorghum bicolor) (chain, as listed by the source): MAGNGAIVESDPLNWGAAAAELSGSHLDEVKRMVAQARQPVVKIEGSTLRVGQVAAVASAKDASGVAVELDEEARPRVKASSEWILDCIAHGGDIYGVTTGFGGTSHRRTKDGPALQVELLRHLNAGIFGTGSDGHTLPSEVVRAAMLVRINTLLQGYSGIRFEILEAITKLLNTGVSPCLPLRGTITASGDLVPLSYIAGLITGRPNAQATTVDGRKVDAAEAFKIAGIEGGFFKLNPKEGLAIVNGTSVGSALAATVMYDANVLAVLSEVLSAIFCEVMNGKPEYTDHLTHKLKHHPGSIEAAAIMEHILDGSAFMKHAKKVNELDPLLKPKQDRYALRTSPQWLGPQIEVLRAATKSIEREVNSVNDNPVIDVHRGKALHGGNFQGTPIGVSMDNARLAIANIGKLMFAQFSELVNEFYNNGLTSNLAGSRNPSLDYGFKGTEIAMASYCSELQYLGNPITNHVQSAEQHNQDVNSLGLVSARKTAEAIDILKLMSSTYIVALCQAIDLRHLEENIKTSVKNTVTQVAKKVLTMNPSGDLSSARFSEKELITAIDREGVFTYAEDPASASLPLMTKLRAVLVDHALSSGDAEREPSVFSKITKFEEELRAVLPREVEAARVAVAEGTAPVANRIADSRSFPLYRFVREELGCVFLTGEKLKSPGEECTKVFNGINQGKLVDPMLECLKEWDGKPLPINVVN

On to “Arabidopsis thaliana AtPAL1, wild type, SEQ ID NO: 144 (Arabidopsis thaliana)”, for which, in the data set on N[C@@H](Cc1ccccc1)C(=O)O [1], the Km was found to be 52.2 ± 3.1 µM, the kcat was 1.42 ± 0.07 s⁻¹ and the kcat/Km worked out at 27310 ± 850 M⁻¹ s⁻¹.

Regarding “Brachypodium distachyon BdPTAL, wild type (Brachypodium distachyon)”, in the data set on N[C@@H](Cc1ccccc1)C(=O)O [2], the Km stood at 216.6 ± 10.3 µM, the kcat came to 1.05 ± 0.05 s⁻¹ and the kcat/Km came to 4840 ± 110 M⁻¹ s⁻¹.

For “Arabidopsis thaliana AtPAL1 variant S114I (as printed in Table 3; AtPAL1^S116I, SEQ ID NO: 260, elsewhere) (Arabidopsis thaliana; S116I)”, in data set [3], the Km stood at 515.4 ± 54.3 µM, the catalytic constant (kcat) amounted to 0.02 ± 0.00 s⁻¹ and the kcat/Km came out at 40 ± 0 M⁻¹ s⁻¹. Further, in the data set on N[C@@H](Cc1ccccc1)C(=O)O [1], the Km was found to be 10.1 ± 1.9 µM, the kcat worked out at 0.23 ± 0.00 s⁻¹ and the kcat/Km amounted to 23710 ± 4630 M⁻¹ s⁻¹.

Regarding “Brachypodium distachyon BdPTAL variant H123F (BdPTAL^H123F) (Brachypodium distachyon; H123F)”, in data set [4], the Km was determined as 765.2 ± 65.8 µM, the kcat is 0.03 ± 0.00 s⁻¹ and the kcat/Km amounted to 40 ± 0 M⁻¹ s⁻¹. Besides, in the data set on N[C@@H](Cc1ccccc1)C(=O)O [5], the Michaelis-Menten constant (Km) is 6.0 ± 1.4 µM, the kcat was found to be 0.17 ± 0.00 s⁻¹ and the kcat/Km stood at 29920 ± 6750 M⁻¹ s⁻¹.

With “Arabidopsis thaliana AtPAL1 variant F144H (AtPAL1^F144H), SEQ ID NO: 261 (Arabidopsis thaliana; F144H)”, in the data set with N[C@@H](Cc1ccccc1)C(=O)O [1], the Km worked out at 1198.9 ± 21.1 µM, the kcat was 1.58 ± 0.04 s⁻¹ and the kcat/Km came out at 1320 ± 20 M⁻¹ s⁻¹.

Turning to “Arabidopsis thaliana AtPAL1 variant F144H/S114I (as printed in Table 3; AtPAL1^F144H_S116I, SEQ ID NO: 146, elsewhere) (Arabidopsis thaliana; F144H/S116I)”, in the data set with N[C@@H](Cc1ccccc1)C(=O)O [1], the Km came out at 87.3 ± 2.9 µM, the kcat was 0.88 ± 0.01 s⁻¹ and the kcat/Km came out at 10070 ± 440 M⁻¹ s⁻¹.

Take “Sorghum bicolor SbPTAL variant H123F (SbPTAL^H123F) (Sorghum bicolor; H123F)”: in data set [6], the Km is 750.7 ± 36.8 µM, the kcat turned out to be 0.03 ± 0.00 s⁻¹ and the kcat/Km was determined as 40 ± 0 M⁻¹ s⁻¹. Moreover, in the data set on N[C@@H](Cc1ccccc1)C(=O)O [7], the Km came to 3.8 ± 2.0 µM, the kcat was determined as 0.10 ± 0.00 s⁻¹ and the kcat/Km turned out to be 30970 ± 13700 M⁻¹ s⁻¹.

Take “Sorghum bicolor SbPTAL, wild type (Sorghum bicolor)”: in the data set with N[C@@H](Cc1ccccc1)C(=O)O [8], the Km came to 150.1 ± 14.4 µM, the kcat stood at 0.69 ± 0.01 s⁻¹ and the kcat/Km was 4630 ± 490 M⁻¹ s⁻¹.

Usually Km stands for the substrate concentration at which the rate is half of its maximum. Usually kcat stands for the number of substrate molecules converted per active site and unit of time at saturation. By kcat/Km is commonly meant the second-order rate constant that governs catalysis at low substrate concentration.
